Results: US20210032299A1 (Eli Lilly, published 2021)
Starred links: 1 amine or outer side, 2 acyl side, 3 side chain; linkers in the order of their positions; H or OH if unused. Non-standard residues stand in square brackets, D forms with d. Groups on a side chain read outwards from the residue. No end group written: not given here. *: point of attachment. C20 diacid = O=C(O)CCCCCCCCCCCCCCCCCCC(=O)*; C18 diacid = O=C(O)CCCCCCCCCCCCCCCCC(=O)*; γGlu = O=C(O)[C@H](CCC(=O)[*:2])N[*:1]; 4Pal = N[C@@H](Cc1ccncc1)C(=O)O; αMeL = CC(C)C[C@](C)(N)C(=O)O; Orn = NCCC[C@H](N)C(=O)O; AEEA = NCCOCCOCC(=O)O; Aib = CC(C)(N)C(=O)O

T1: human glucose-dependent insulinotropic polypeptide (GIP) receptor (human, UniProt P48546 22-466)
T1 construct: whole, on cells; Assayed as crude membranes of stably transfected CHO cells; also called hGIPR; human GIP receptor
T1 sequence (looked up): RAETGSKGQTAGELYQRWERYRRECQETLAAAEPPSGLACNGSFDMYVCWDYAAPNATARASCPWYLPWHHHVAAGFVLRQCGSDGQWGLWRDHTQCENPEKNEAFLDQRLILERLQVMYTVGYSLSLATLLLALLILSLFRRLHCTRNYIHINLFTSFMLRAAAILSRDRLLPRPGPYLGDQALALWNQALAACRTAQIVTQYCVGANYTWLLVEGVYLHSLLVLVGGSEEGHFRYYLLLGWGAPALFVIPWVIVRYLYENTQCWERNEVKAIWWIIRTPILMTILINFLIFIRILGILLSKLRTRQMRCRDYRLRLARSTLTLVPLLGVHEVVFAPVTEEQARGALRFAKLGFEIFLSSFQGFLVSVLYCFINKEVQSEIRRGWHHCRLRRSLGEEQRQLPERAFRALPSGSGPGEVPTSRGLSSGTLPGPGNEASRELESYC

B1: Example 9 (peptide)
peptide: YXEGTFISDYSILLDKKHQXDFVNWLLAQGPSSGAPPPS
modifications: D-Ala2; K17((2-[2-(2-Amino-ethoxy)-ethoxy]-acetyl)2-(γ-Glu)-CO-(CH2)18-CO2H); Aib20; C-terminal amide
B2: Example 32 (peptide)
peptide: Y[dA]EGTLISDYSILLDKK([AEEA-AEEA-γGlu-C18 diacid])AQ[Aib]DFVNWLLAQGPSSGAPPPS-NH2
modifications: N-terminus assumed
SMILES: CC[C@H](C)[C@H](NC(=O)[C@H](CO)NC(=O)[C@H](Cc1ccc(O)cc1)NC(=O)[C@H](CC(=O)O)NC(=O)[C@H](CO)NC(=O)[C@@H](NC(=O)[C@H](CC(C)C)NC(=O)[C@@H](NC(=O)CNC(=O)[C@H](CCC(=O)O)NC(=O)[C@@H](C)NC(=O)[C@@H](N)Cc1ccc(O)cc1)[C@@H](C)O)[C@@H](C)CC)C(=O)N[C@@H](CC(C)C)C(=O)N[C@@H](CC(C)C)C(=O)N[C@@H](CC(=O)O)C(=O)N[C@@H](CCCCN)C(=O)N[C@@H](CCCCNC(=O)COCCOCCNC(=O)COCCOCCNC(=O)CC[C@H](NC(=O)CCCCCCCCCCCCCCCCC(=O)O)C(=O)O)C(=O)N[C@@H](C)C(=O)N[C@@H](CCC(N)=O)C(=O)NC(C)(C)C(=O)N[C@@H](CC(=O)O)C(=O)N[C@@H](Cc1ccccc1)C(=O)N[C@H](C(=O)N[C@@H](CC(N)=O)C(=O)N[C@@H](Cc1c[nH]c2ccccc12)C(=O)N[C@@H](CC(C)C)C(=O)N[C@@H](CC(C)C)C(=O)N[C@@H](C)C(=O)N[C@@H](CCC(N)=O)C(=O)NCC(=O)N1CCC[C@H]1C(=O)N[C@@H](CO)C(=O)N[C@@H](CO)C(=O)NCC(=O)N[C@@H](C)C(=O)N1CCC[C@H]1C(=O)N1CCC[C@H]1C(=O)N1CCC[C@H]1C(=O)N[C@@H](CO)C(N)=O)C(C)C
B3: Example 31 (peptide)
peptide: Y[Aib]EGTFISDYSILLDKK([AEEA-AEEA-γGlu-C18 diacid])HQ[Aib]DFVNYLLAAGPSSGAPPPS-NH2
modifications: N-terminus assumed
SMILES: CC[C@H](C)[C@H](NC(=O)[C@H](CO)NC(=O)[C@H](Cc1ccc(O)cc1)NC(=O)[C@H](CC(=O)O)NC(=O)[C@H](CO)NC(=O)[C@@H](NC(=O)[C@H](Cc1ccccc1)NC(=O)[C@@H](NC(=O)CNC(=O)[C@H](CCC(=O)O)NC(=O)C(C)(C)NC(=O)[C@@H](N)Cc1ccc(O)cc1)[C@@H](C)O)[C@@H](C)CC)C(=O)N[C@@H](CC(C)C)C(=O)N[C@@H](CC(C)C)C(=O)N[C@@H](CC(=O)O)C(=O)N[C@@H](CCCCN)C(=O)N[C@@H](CCCCNC(=O)COCCOCCNC(=O)COCCOCCNC(=O)CC[C@H](NC(=O)CCCCCCCCCCCCCCCCC(=O)O)C(=O)O)C(=O)N[C@@H](Cc1c[nH]cn1)C(=O)N[C@@H](CCC(N)=O)C(=O)NC(C)(C)C(=O)N[C@@H](CC(=O)O)C(=O)N[C@@H](Cc1ccccc1)C(=O)N[C@H](C(=O)N[C@@H](CC(N)=O)C(=O)N[C@@H](Cc1ccc(O)cc1)C(=O)N[C@@H](CC(C)C)C(=O)N[C@@H](CC(C)C)C(=O)N[C@@H](C)C(=O)N[C@@H](C)C(=O)NCC(=O)N1CCC[C@H]1C(=O)N[C@@H](CO)C(=O)N[C@@H](CO)C(=O)NCC(=O)N[C@@H](C)C(=O)N1CCC[C@H]1C(=O)N1CCC[C@H]1C(=O)N1CCC[C@H]1C(=O)N[C@@H](CO)C(N)=O)C(C)C
B4: Example 80 (peptide)
peptide: Y[Aib]EGTFISDYSI[αMeL]LD[Orn]K([AEEA-AEEA-γGlu-C20 diacid])HQ[Aib]DFVE[4Pal]LLETGPSSGAPPPS-NH2
modifications: N-terminus assumed
SMILES: CC[C@H](C)[C@H](NC(=O)[C@H](Cc1ccccc1)NC(=O)[C@@H](NC(=O)CNC(=O)[C@H](CCC(=O)O)NC(=O)C(C)(C)NC(=O)[C@@H](N)Cc1ccc(O)cc1)[C@@H](C)O)C(=O)N[C@@H](CO)C(=O)N[C@@H](CC(=O)O)C(=O)N[C@@H](Cc1ccc(O)cc1)C(=O)N[C@@H](CO)C(=O)N[C@H](C(=O)N[C@@](C)(CC(C)C)C(=O)N[C@@H](CC(C)C)C(=O)N[C@@H](CC(=O)O)C(=O)N[C@@H](CCCN)C(=O)N[C@@H](CCCCNC(=O)COCCOCCNC(=O)COCCOCCNC(=O)CC[C@H](NC(=O)CCCCCCCCCCCCCCCCCCC(=O)O)C(=O)O)C(=O)N[C@@H](Cc1c[nH]cn1)C(=O)N[C@@H](CCC(N)=O)C(=O)NC(C)(C)C(=O)N[C@@H](CC(=O)O)C(=O)N[C@@H](Cc1ccccc1)C(=O)N[C@H](C(=O)N[C@@H](CCC(=O)O)C(=O)N[C@@H](Cc1ccncc1)C(=O)N[C@@H](CC(C)C)C(=O)N[C@@H](CC(C)C)C(=O)N[C@@H](CCC(=O)O)C(=O)N[C@H](C(=O)NCC(=O)N1CCC[C@H]1C(=O)N[C@@H](CO)C(=O)N[C@@H](CO)C(=O)NCC(=O)N[C@@H](C)C(=O)N1CCC[C@H]1C(=O)N1CCC[C@H]1C(=O)N1CCC[C@H]1C(=O)N[C@@H](CO)C(N)=O)[C@@H](C)O)C(C)C)[C@@H](C)CC
B5: Example 24 (peptide)
peptide: Y[Aib]EGTFISDYSI[Aib]LDKK([AEEA-AEEA-γGlu-C18 diacid])HQ[Aib]DFVE[4Pal]LLAGGPSSGAPPPS-NH2
modifications: N-terminus assumed
SMILES: CC[C@H](C)[C@H](NC(=O)[C@H](Cc1ccccc1)NC(=O)[C@@H](NC(=O)CNC(=O)[C@H](CCC(=O)O)NC(=O)C(C)(C)NC(=O)[C@@H](N)Cc1ccc(O)cc1)[C@@H](C)O)C(=O)N[C@@H](CO)C(=O)N[C@@H](CC(=O)O)C(=O)N[C@@H](Cc1ccc(O)cc1)C(=O)N[C@@H](CO)C(=O)N[C@H](C(=O)NC(C)(C)C(=O)N[C@@H](CC(C)C)C(=O)N[C@@H](CC(=O)O)C(=O)N[C@@H](CCCCN)C(=O)N[C@@H](CCCCNC(=O)COCCOCCNC(=O)COCCOCCNC(=O)CC[C@H](NC(=O)CCCCCCCCCCCCCCCCC(=O)O)C(=O)O)C(=O)N[C@@H](Cc1c[nH]cn1)C(=O)N[C@@H](CCC(N)=O)C(=O)NC(C)(C)C(=O)N[C@@H](CC(=O)O)C(=O)N[C@@H](Cc1ccccc1)C(=O)N[C@H](C(=O)N[C@@H](CCC(=O)O)C(=O)N[C@@H](Cc1ccncc1)C(=O)N[C@@H](CC(C)C)C(=O)N[C@@H](CC(C)C)C(=O)N[C@@H](C)C(=O)NCC(=O)NCC(=O)N1CCC[C@H]1C(=O)N[C@@H](CO)C(=O)N[C@@H](CO)C(=O)NCC(=O)N[C@@H](C)C(=O)N1CCC[C@H]1C(=O)N1CCC[C@H]1C(=O)N1CCC[C@H]1C(=O)N[C@@H](CO)C(N)=O)C(C)C)[C@@H](C)CC
B6: Example 83 (peptide)
peptide: Y[Aib]EGTFISDYSI[αMeL]LDEK([AEEA-AEEA-γGlu-C20 diacid])HQ[Aib]DFVE[4Pal]LLATGPSSGAPPPS-NH2
modifications: N-terminus assumed
SMILES: CC[C@H](C)[C@H](NC(=O)[C@H](Cc1ccccc1)NC(=O)[C@@H](NC(=O)CNC(=O)[C@H](CCC(=O)O)NC(=O)C(C)(C)NC(=O)[C@@H](N)Cc1ccc(O)cc1)[C@@H](C)O)C(=O)N[C@@H](CO)C(=O)N[C@@H](CC(=O)O)C(=O)N[C@@H](Cc1ccc(O)cc1)C(=O)N[C@@H](CO)C(=O)N[C@H](C(=O)N[C@@](C)(CC(C)C)C(=O)N[C@@H](CC(C)C)C(=O)N[C@@H](CC(=O)O)C(=O)N[C@@H](CCC(=O)O)C(=O)N[C@@H](CCCCNC(=O)COCCOCCNC(=O)COCCOCCNC(=O)CC[C@H](NC(=O)CCCCCCCCCCCCCCCCCCC(=O)O)C(=O)O)C(=O)N[C@@H](Cc1c[nH]cn1)C(=O)N[C@@H](CCC(N)=O)C(=O)NC(C)(C)C(=O)N[C@@H](CC(=O)O)C(=O)N[C@@H](Cc1ccccc1)C(=O)N[C@H](C(=O)N[C@@H](CCC(=O)O)C(=O)N[C@@H](Cc1ccncc1)C(=O)N[C@@H](CC(C)C)C(=O)N[C@@H](CC(C)C)C(=O)N[C@@H](C)C(=O)N[C@H](C(=O)NCC(=O)N1CCC[C@H]1C(=O)N[C@@H](CO)C(=O)N[C@@H](CO)C(=O)NCC(=O)N[C@@H](C)C(=O)N1CCC[C@H]1C(=O)N1CCC[C@H]1C(=O)N1CCC[C@H]1C(=O)N[C@@H](CO)C(N)=O)[C@@H](C)O)C(C)C)[C@@H](C)CC

Target: T1, human glucose-dependent insulinotropic …
Assay: SPA, displacement of [125I]-GIP from hGIPR membranes, 0.1% bacitracin
Experimental: The binding buffer contains 25 mM HEPES, pH 7.4, 2.5 mM CaCl₂, 1 mM MgCl₂, 0.1% (w/v) bacitracin, 0.003% (w/v) TWEEN®-20, and Roche Complete™ Protease Inhibitors without EDTA. […] Plates are sealed and mixed on a plate shaker (setting 6) for 1 minute and read with a PerkinElmer Trilux MicroBeta® scintillation counter after 2.5 to 12 hours of incubation/settling time at room temperature.
(§1) Data are analyzed using four-parameter (curve maximum, curve minimum, […], Hill slope) nonlinear regression routines (Genedata Screener, version 12.0.4, Genedata AG, Basal, Switzerland). […] Values for Kᵢ are reported as the geometric mean, with error expressed as the standard error of the mean (SEM) and n is equal to the number of independent replicates (determined in assays performed on different days). Geometric Means are calculated as follows: […]

**Q.** With B1 as the binder, how does the Ki read?
**A.** 0.11 nM

**Q.** With B2 as the binder, how does the Ki read?
**A.** 0.0343 nM

**Q.** Which Ki does the source give for B3 here?
**A.** 0.0473 nM

**Q.** How did the Ki turn out when B4 was run?
**A.** 0.0828 nM

**Q.** B5 was tested. Which Ki did it give?
**A.** 0.254 nM

**Q.** How did the Ki turn out when B6 was run?
**A.** 0.116 nM

Target: T2, human GLP-1 receptor (human, UniProt P43220 24-463)
T2 construct: whole, on cells; Assayed as crude membranes of stably transfected HEK293 cells; also called hGLP1R; hGLP-1R
Assay: SPA, displacement of [125I]-GLP-1 from hGLP-1R membranes, 0.1% bacitracin
Experimental: The binding buffer contains 25 mM HEPES, pH 7.4, 2.5 mM CaCl₂, 1 mM MgCl₂, 0.1% (w/v) bacitracin, 0.003% (w/v) TWEEN®-20, and Roche Complete™ Protease Inhibitors without EDTA.
as §1

**Q.** Which Ki does the source give for B1 here?
**A.** 168 nM

**Q.** With B2 as the binder, how does the Ki read?
**A.** 85.2 nM

**Q.** With B3 as the binder, how does the Ki read?
**A.** 266 nM

**Q.** How did the Ki turn out when B5 was run?
**A.** 729 nM

**Q.** Which Ki does the source give for B6 here?
**A.** 452 nM
